Data on 2 proteins can be found in article PMC6779512 (Proteins, 2019).

This data set concerns the molecule itself. Put plainly: SEC. On the technique in general: In gel filtration, larger molecules generally elute earlier.

Substitutions are numbered along the chain they refer to. In names and notes the source's numbering stands.

B1: Spa47 E267A (enzyme)
chain: MSYTKLLTQLSFPNRISGPILETSLSDVSIGEICNIQAGIESNEIVARAQVVGFHDEKTILSLIGNSRGLSRQTLIKPTAQFLHTQVGRGLLGAVVNPLGEVTDKFAVTDNSEILYRPVDNAPPLYSERAAIEKPFLTGIKVIDSLLTCGEGQRMGIFASAGCGKTFLMNMLIEHSGADIYVIGLIGERGREVTETVDYLKNSEKKSRCVLVYATSDYSSVDRCNAAYIATAIAEFFRTEGHKVALFIDSLTRYARALRDVALAAGASPARRGYPVSVFDSLPRLLERPGKLKAGGSITAFYTVLLEDDDFADPLAEEVRSILDGHIYLSRNLAQKGQFPAIDSLKSISRVFTQVVDEKHRIMAAAFRELLSEIEELRTIIDFGEYKPGENASQDKIYNKISVVESFLKQDYRLGFTYEQTMELIGETIR
Consider B1, for which the binding result is listed as “binds”.

B2: Spa47 E267R (enzyme)
chain: B1 chain with A267R
B2: the binding result was “binds”.
